# From the Human Domainome abundance scans (Beltran et al. 2025)
# ± gives the uncertainty stated by the source.
# B1: Membrane-associated guanylate kinase, WW and PDZ domain-containing protein 2, residues 601 to 682; numbered along this chain, Q86UL8 (parent)
# chain: AELMTLTIVKGAQGFGFTIADSPTGQRVKQILDIQGCPGLCEGDLIVEINQQNVQNLSHTEVVDILKDCPIGSETSLIIHRG
# Variants of: B1
# Assay: abundance fitness (aPCA) (normalised: wild type 0, dead -1); higher = more abundant; growth selection in yeast, the domain comes from the species named
# Settings: Homo sapiens
row,Variant,abundance fitness
1,I78H,-0.157 ± 0.2
2,I78R,0.033 ± 0.071
3,I78W,-0.129 ± 0.089
4,I78T,-0.224 ± 0.15
5,I78S,0.019 ± 0.098
6,I78L,-0.053 ± 0.097
7,I78F,-0.035 ± 0.27
8,I78M,0.144 ± 0.14
9,I78K,-0.122 ± 0.1
10,K67W,-0.224 ± 0.24
11,K67F,-0.062 ± 0.31
12,K67T,0.093 ± 0.11
13,K67M,-0.003 ± 0.1
14,K67N,-0.022 ± 0.18
15,K67L,-0.083 ± 0.097
16,K67Q,-0.145 ± 0.13
17,K67R,0.034 ± 0.089
18,K67Y,-0.226 ± 0.14
19,K67E,-0.034 ± 0.17
20,K67C,-0.117 ± 0.11
21,K67V,-0.112 ± 0.14
22,K67G,0.052 ± 0.093
23,K67I,-0.324 ± 0.13

row,Variant,abundance fitness
1,K67S,0.004 ± 0.083
2,K67H,-0.23 ± 0.21
3,K67A,-0.072 ± 0.083
4,E74S,-0.16 ± 0.1
5,E74C,-0.322 ± 0.17
6,E74W,-0.069 ± 0.096
7,E74V,-0.122 ± 0.12
8,E74M,0.062 ± 0.15
9,E74G,-0.153 ± 0.1
10,E74Q,-0.074 ± 0.16
11,E74T,-0.422 ± 0.38
12,E74D,0.137 ± 0.15
13,E74P,0.149 ± 0.12
14,E74R,0.013 ± 0.069
15,E74H,0.241 ± 0.47
16,E74I,-0.214 ± 0.16
17,E74A,-0.185 ± 0.088
18,E74K,-0.23 ± 0.34
19,G72H,-0.356 ± 0.28
20,G72P,0.022 ± 0.12
21,G72D,0.073 ± 0.089
22,G72W,-0.243 ± 0.1
23,G72T,-0.147 ± 0.092

row,Variant,abundance fitness
1,G72F,-0.353 ± 0.16
2,G72K,-0.139 ± 0.099
3,G72Q,0.003 ± 0.17
4,G72C,0.046 ± 0.089
5,G72A,0.002 ± 0.061
6,G72E,-0.018 ± 0.097
7,G72R,0.006 ± 0.065
8,G72N,-0.189 ± 0.34
9,G72S,0.004 ± 0.083
10,G72Y,-0.419 ± 0.24
11,G72L,-0.003 ± 0.079
12,G72M,0.059 ± 0.089
13,R81A,-0.098 ± 0.079
14,R81Q,-0.051 ± 0.16
15,R81T,-0.174 ± 0.12
16,R81E,-0.419 ± 0.1
17,R81D,-0.538 ± 0.41
18,R81W,-0.52 ± 0.12
19,R81V,-0.252 ± 0.11
20,R81M,-0.387 ± 0.12
21,R81P,0.039 ± 0.083
22,R81H,0.048 ± 0.23
